Usually EC50 (read off the curve) stands for the concentration needed to bring the measured effect to its halfway point. The low end stands for a more potent agent, the high end for a less potent agent.

Results on 3 substances are retold here after patent US20250333531A1.

Assay [1] addresses CD20 (UniProt P11836). Briefly: flow cytometry on CLL patient sample CLL177, FITC-rituximab at 10 µg per 10^6 cells, median fluorescence intensity, background corrected. For orientation: Flow cytometry measures light scatter and fluorescence of single cells or particles in a stream.
Assay [2] deals with CD20 (UniProt P11836). Briefly: flow cytometry, FITC-labelled antibody on Daudi and SU-DHL-6 cells.
Assay [3] concerns the target CD20 (UniProt P11836). The experiment in a line: flow cytometry on CLL patient sample CLL187, FITC-rituximab at 10 µg per 10^6 cells, median fluorescence intensity, background corrected.
The target of assay [4] is biotinylated truncated soluble human FcγRIIIa-V158 (human) (UniProt P08637). The experiment in a line: ELISA: IgG coated at 10000-4.5 ng/ml, biotinylated truncated soluble human FcγRIIIa-V158 250 ng/ml pre-complexed with AP-streptavidin, absorbance 405 nm. (An ELISA detects its analyte on a solid surface through an enzyme-linked reagent.)
Assay [5] has as its target biotinylated truncated soluble human FcγRIIa-R131 (human) (UniProt P12318). Briefly: ELISA: IgG coated at 10000-4.5 ng/ml, biotinylated truncated soluble human FcγRIIa-R131 250 ng/ml pre-complexed with AP-streptavidin, absorbance 405 nm.
The target of assay [6] is biotinylated soluble human FcRn (human) (UniProt P55899). Briefly: ELISA: IgG coated at 1000-0.45 ng/ml, biotinylated soluble human FcRn 250 ng/ml pre-complexed with AP-streptavidin, pH 7.4, absorbance 405 nm.
The target in assay [7] is biotinylated truncated soluble human FcγRIIb (human) (UniProt P31994). Briefly: ELISA: IgG coated at 10000-4.5 ng/ml, biotinylated truncated soluble human FcγRIIb 250 ng/ml pre-complexed with AP-streptavidin, absorbance 405 nm.
The target in assay [8] is biotinylated truncated soluble human FcγRIIa-H131 (human) (UniProt P12318). Briefly: ELISA: IgG coated at 10000-4.5 ng/ml, biotinylated truncated soluble human FcγRIIa-H131 250 ng/ml pre-complexed with AP-streptavidin, absorbance 405 nm.
The target of assay [9] is biotinylated truncated soluble human FcγRI (human) (UniProt P12314). Briefly: ELISA: IgG coated at 10000-4.5 ng/ml, biotinylated truncated soluble human FcγRI 250 ng/ml pre-complexed with AP-streptavidin, absorbance 405 nm.
Assay [10] deals with FcγRIIIa-V158 on Promega Jurkat effector cells (UniProt P08637). Briefly: cell-based or functional assay.
The next assay deals with human CD37 (human) (UniProt P11049). The experiment in a line: flow cytometry on Ramos cells, isotype control, MFI normalised to chHH1-DOTA (blank supernatant 28.3%).
Chain of human CD37 (human) (P11049 whole entry): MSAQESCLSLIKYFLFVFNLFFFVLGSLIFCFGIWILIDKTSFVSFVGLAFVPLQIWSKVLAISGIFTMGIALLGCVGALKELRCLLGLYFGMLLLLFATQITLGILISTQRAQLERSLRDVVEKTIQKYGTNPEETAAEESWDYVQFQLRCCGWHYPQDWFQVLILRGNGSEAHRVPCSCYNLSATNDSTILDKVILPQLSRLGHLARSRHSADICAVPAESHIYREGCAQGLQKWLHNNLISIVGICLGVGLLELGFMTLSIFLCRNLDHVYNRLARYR

Chain of CD20 (P11836 whole entry, the tested form may be a part): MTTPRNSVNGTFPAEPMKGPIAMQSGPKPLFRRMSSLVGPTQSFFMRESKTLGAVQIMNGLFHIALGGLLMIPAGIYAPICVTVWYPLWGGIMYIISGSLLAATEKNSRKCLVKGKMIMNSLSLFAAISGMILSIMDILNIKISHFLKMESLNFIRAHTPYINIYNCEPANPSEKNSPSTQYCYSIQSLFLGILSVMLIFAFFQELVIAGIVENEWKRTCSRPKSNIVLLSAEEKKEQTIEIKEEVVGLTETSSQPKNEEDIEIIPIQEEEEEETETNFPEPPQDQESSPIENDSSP
Chain of biotinylated truncated soluble human FcγRIIb (human) (P31994 43-217): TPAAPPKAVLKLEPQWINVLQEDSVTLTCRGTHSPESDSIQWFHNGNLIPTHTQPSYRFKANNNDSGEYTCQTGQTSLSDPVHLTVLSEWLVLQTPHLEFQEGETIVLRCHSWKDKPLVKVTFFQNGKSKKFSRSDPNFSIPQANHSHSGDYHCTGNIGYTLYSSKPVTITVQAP
Chain of biotinylated truncated soluble human FcγRIIa-H131 (human) (P12318 34-217): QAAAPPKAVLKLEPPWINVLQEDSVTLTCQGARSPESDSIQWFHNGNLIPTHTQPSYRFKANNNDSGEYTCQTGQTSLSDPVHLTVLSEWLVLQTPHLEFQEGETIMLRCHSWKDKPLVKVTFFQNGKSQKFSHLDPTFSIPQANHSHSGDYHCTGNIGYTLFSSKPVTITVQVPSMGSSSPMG
Chain of biotinylated soluble human FcRn (human) (P55899 24-297 limits assumed, chain 1 of 2): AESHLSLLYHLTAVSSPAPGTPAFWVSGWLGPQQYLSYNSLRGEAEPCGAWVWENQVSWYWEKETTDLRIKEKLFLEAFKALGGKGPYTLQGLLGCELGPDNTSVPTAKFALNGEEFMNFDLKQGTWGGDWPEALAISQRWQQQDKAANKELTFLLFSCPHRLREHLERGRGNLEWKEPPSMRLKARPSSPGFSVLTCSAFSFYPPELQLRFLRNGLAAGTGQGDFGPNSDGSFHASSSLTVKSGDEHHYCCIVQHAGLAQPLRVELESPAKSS
Chain of biotinylated soluble human FcRn (human) (chain, as listed by the source limits assumed, chain 2 of 2): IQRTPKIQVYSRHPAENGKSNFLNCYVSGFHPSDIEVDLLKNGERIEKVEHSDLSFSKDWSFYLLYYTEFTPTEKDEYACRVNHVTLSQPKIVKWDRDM
Chain of biotinylated truncated soluble human FcγRI (human) (P12314 16-292): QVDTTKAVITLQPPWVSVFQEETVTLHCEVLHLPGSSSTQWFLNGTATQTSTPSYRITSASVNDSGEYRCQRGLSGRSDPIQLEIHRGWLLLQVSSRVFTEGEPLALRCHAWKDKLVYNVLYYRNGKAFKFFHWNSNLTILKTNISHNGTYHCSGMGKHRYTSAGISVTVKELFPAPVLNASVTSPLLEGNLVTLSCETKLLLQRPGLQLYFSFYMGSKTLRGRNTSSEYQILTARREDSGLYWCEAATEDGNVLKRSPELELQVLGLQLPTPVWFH
Chain of biotinylated truncated soluble human FcγRIIa-R131 (human) (P12318 34-217 H167R): as the sequence (P12318 34-217) above, with H134R counted along it

For “Anti-CD20 (10F381 rituximab) FITC-conjugated rabbit/human chimeric Ab (antibody)”, the Avg. MFI (a.u.) stood at 52 a.u with CD20 [1] and 68 a.u in the assay with CD20 [3]. For the same substance, the saturation titer (µg per 10^6 cells) with CD20 [2] is 10.
obinutuzumab (antibody): the half-maximal effective concentration (EC50 (read off the curve)) was 1 µg/mL in assay [4]; 2 µg/mL in [5]; 0.06 µg/mL in assay [6]; 2 µg/mL in assay [7]; 0.6 µg/mL in [8]; 0.6 µg/mL in [9]. The substance also yielded an average potency of the ADCC response (Example 13) in [10] of 1.1 nM.
isotype control antibody: the Normalized average binding (%) in the assay with human CD37 (human) was 29.5%.
